Assay results reported in patent US20080161234A1, “Composition Comprising Lactic Acid and Lactoferrin” (priority 2004, published 2008).
“Also recorded” adds a separate entry of the source.

Assays:
Assay type in all cases: cell-based
[1] = system: C. albicans (ATCC 64549); experiment: Microbicidal microplate assay (viable counts), C. albicans
Experimental: The bacterial strains S. aureus 1800 (CCUG 1800), E. coli 06, and the yeast C. albicans (ATCC 64549) have been used in the microplate assay. All microorganisms were cultured in brain heart infusion medium (BHI) on a shaker over night at 37° C. A volume of the culture was transferred to a new tube with BHI and incubated for two more h on the shaker. The bacteria were harvested in the log phase, washed once and thereafter suspended in the broth used for the microplate assay. The suspension was adjusted spectrophotometrically and diluted to a concentration of approximately 4×10^6 cells per ml at 650 nm. Washed cells were suspended in 0.2% BP (pH 7.0) or BHI medium diluted 1/10 (0.34%, pH 6.7-6.9) (Difco, USA). The concentration of bacterial or fungal cells was spectrophotometrically adjusted. LF or peptide, serially diluted in BHIdil or BP by twofold steps (unless otherwise stated), were added in triplicate to the wells of a microtiterplate (200 ul per well). The bacterial or yeast cell solutions were added in 10 ul volumes to give a final concentration of approximately 2×10^5 cells per ml. The concentration of the stock solution was always checked by viable counts. The microplate was incubated at 37° C. in a humid chamber for 2 h unless otherwise stated. Five ul were taken from each well and added as a drop onto a blood agar plate and incubated over night at 37° C. In some experiments more thorough viable counts were performed and the killing was expressed as remaining colony forming units in relation to the inoculum. The lower limit for detection of microorganisms was 200 CFU/ml. The antimicrobial activity of human LF was analysed by the microbicidal assay described above. Different microbes such as C. albicans, E. coli and S. aureus were analysed with respect to their survival in lactate (not containing the inert gel base, which makes the gel unsuitable for the microbicidal assay) containing LF. […] LF was incubated together with various concentrations of lactate diluted in 0.2% bactopeptone and C. albicans for 2 h. Thereafter each solution was analysed for viable counts.

[2] = system: E. coli 06; experiment: Microbicidal microplate-droplet assay, E. coli; details: 1 mg/ml, lactate 0.2% and lactate free solution, 2 h
Experimental: The bacterial strains S. aureus 1800 (CCUG 1800), E. coli 06, and the yeast C. albicans (ATCC 64549) have been used in the microplate assay. All microorganisms were cultured in brain heart infusion medium (BHI) on a shaker over night at 37° C. A volume of the culture was transferred to a new tube with BHI and incubated for two more h on the shaker. The bacteria were harvested in the log phase, washed once and thereafter suspended in the broth used for the microplate assay. The suspension was adjusted spectrophotometrically and diluted to a concentration of approximately 4×10^6 cells per ml at 650 nm. Washed cells were suspended in 0.2% BP (pH 7.0) or BHI medium diluted 1/10 (0.34%, pH 6.7-6.9) (Difco, USA). The concentration of bacterial or fungal cells was spectrophotometrically adjusted. LF or peptide, serially diluted in BHIdil or BP by twofold steps (unless otherwise stated), were added in triplicate to the wells of a microtiterplate (200 ul per well). The bacterial or yeast cell solutions were added in 10 ul volumes to give a final concentration of approximately 2×10^5 cells per ml. The concentration of the stock solution was always checked by viable counts. The microplate was incubated at 37° C. in a humid chamber for 2 h unless otherwise stated. Five ul were taken from each well and added as a drop onto a blood agar plate and incubated over night at 37° C. In some experiments more thorough viable counts were performed and the killing was expressed as remaining colony forming units in relation to the inoculum. The lower limit for detection of microorganisms was 200 CFU/ml. The antimicrobial activity of human LF was analysed by the microbicidal assay described above. Different microbes such as C. albicans, E. coli and S. aureus were analysed with respect to their survival in lactate (not containing the inert gel base, which makes the gel unsuitable for the microbicidal assay) containing LF.

[3] = system: L. gasseri; experiment: Survival of L. gasseri in lactate with LF; details: rHLF 2 mg/ml in lactate, 2 h of incubation
Experimental: (§1) L. gasseri and L. jensenii were cultured on chocolate-agar plates for 24 h in 5% CO2/95% air. They were thereafter harvested and added to BHI (0.34%). After washing the bacterial solutions were adjusted spectrophotometrically and diluted to 8×10^6 bacteria/ml.
(§2) Washed cells were suspended in 0.2% BP (pH 7.0) or BHI medium diluted 1/10 (0.34%, pH 6.7-6.9) (Difco, USA). The concentration of bacterial or fungal cells was spectrophotometrically adjusted. LF or peptide, serially diluted in BHIdil or BP by twofold steps (unless otherwise stated), were added in triplicate to the wells of a microtiterplate (200 ul per well). The bacterial or yeast cell solutions were added in 10 ul volumes to give a final concentration of approximately 2×10^5 cells per ml. The concentration of the stock solution was always checked by viable counts. The microplate was incubated at 37° C. in a humid chamber for 2 h unless otherwise stated. Five ul were taken from each well and added as a drop onto a blood agar plate and incubated over night at 37° C. In some experiments more thorough viable counts were performed and the killing was expressed as remaining colony forming units in relation to the inoculum. The lower limit for detection of microorganisms was 200 CFU/ml.
(§3) L. gasseri survived better in the assay system than did L. jensenii. Undiluted lactate (5%) affected the survival of Lactobacillus.

[4] = system: L. jensenii; experiment: Survival of L. jensenii in lactate with LF; details: 2 mg/ml, lactate 0.2%, 2 h
Experimental: as §1, §2, §3

B1: rHLF: Recombinant human LF obtained from Agennix (protein, UniProt P02788 20-710, looked up)
Lactotransferrin: GRRRSVQWCAVSQPEATKCFQWQRNMRKVRGPPVSCIKRDSPIQCIQAIAENRADAVTLDGGFIYEAGLAPYKLRPVAAEVYGTERQPRTHYYAVAVVKKGGSFQLNELQGLKSCHTGLRRTAGWNVPIGTLRPFLNWTGPPEPIEAAVARFFSASCVPGADKGQFPNLCRLCAGTGENKCAFSSQEPYFSYSGAFKCLRDGAGDVAFIRESTVFEDLSDEAERDEYELLCPDNTRKPVDKFKDCHLARVPSHAVVARSVNGKEDAIWNLLRQAQEKFGKDKSPKFQLFGSPSGQKDLLFKDSAIGFSRVPPRIDSGLYLGSGYFTAIQNLRKSEEEVAARRARVVWCAVGEQELRKCNQWSGLSEGSVTCSSASTTEDCIALVLKGEADAMSLDGGYVYTAGKCGLVPVLAENYKSQQSSDPDPNCVDRPVEGYLAVAVVRRSDTSLTWNSVKGKKSCHTAVDRTAGWNIPMGLLFNQTGSCKFDEYFSQSCAPGSDPRSNLCALCIGDEQGENKCVPNSNERYYGYTGAFRCLAENAGDVAFVKDVTVLQNTDGNNNEAWAKDLKLADFALLCLDGKRKPVTEARSCHLAMAPNHAVVSRMDKVERLKQVLLHQQAKFGRNGSDCPDKFCLFQSETKNLLFNDNTECLARLHGKTTYEKYLGPQYVAGITNLKKCSTSPLLEACEFLRK
[1]; lactate 0.2%, 2 and 20 h
  fungicidal effect on C. albicans, rHLF in comparison to LF: the stronger effect of rHLF was observed only after a longer incubation time
[1]; lactate 1%, higher LF concentrations
  fungicidal effect on C. albicans, rHLF in comparison to LF: stronger effect
[1]; rHLF 0.5-1.0 mg/ml, lactate 1%, 2 h
  killing of the inoculate: ~99%
[2]
  killing of E. coli, rHLF compared with LF: the most effective of the two LFs
[3]
  effect on L. gasseri survival beyond that of lactate: no additional effects; also recorded: survived equally well
[4]
  resistance of L. jensenii to the antibacterial effect: more resistant
